Measurements from PMC4861830, “Isolation and Characterization of Three New Monoterpene Synthases from Artemisia annua” (Frontiers in Plant Science, 2016).

B1: AaTPS5 (Artemisia annua) (protein)
chain: IRRSAGYPPSLWPYERIQAINSIYTGEKYASRLETLKEEVRNMIYKENEKAENPLSTLNLVDDLQRLGIWYHFVDDINNVLDNVYNKYYKSPEKWNTLDLNLKALGFRLLRHNGYHITQDIFEDIQDETRIMGHTIEDTLGLLNLYEASYHSFEDENILDEARAFTKKYLQGSLGKIDDQYLSSLTSRALDMPLHWRIARVETIWFMEAYEKRSGMNPTVLDLAKLDFNMVQAVHQEDLKYASRWWRTTKWDDKLSFARDRLVENYMWTIGNSYRPQFTLLRRILTKVFAIITTVDDVYDVHGTLDELERFTDVISRWNIYAIEELPDYMKICFLGFYNSVNDMAYTTLTDTGFFILPYLQKAWEDLCKAYLVEARWYHTKYMPTFKEYLDIAEVSISVPLMLTHISFVMNVCSTEEVIQSMDKIKNLIRYSSQILRLADDLGTSSDEMARGDTPKSIQCYMHETGATEEEARAHVRSLIIKVWQKLNKERAGLKTTYLKEFGECAANFGRMAQFMYQVADGHGHNIDLTEAYVLSLVVNPIQGV
notes: N-terminal 57-residue plastid signal peptide removed (before RR motif; full length 602 residues); pET-32a fusion tag kept; E. coli BL21(DE3); Ni-NTA
B2: AaTPS2 (Artemisia annua) (protein)
chain: VRRTANYEPTLWSYDHIQSLSSKYTGEEYAARANILKNSVKRLLGEVENSPSILELVNDLQRLGIYYHFEDEIRNALEMIYYKYYKTPDKWGKMDLNLTALGFRLLRQHGYQVPQEIFQNFLDNAQNLKPHLLEEIAGMLNLYEASYHAFEDETILDNARAFTTKYLKENLDKIDGHILSLVSHALEFPLHWRVPRVEAKWYIEVYEKKNGMNHILIELAKLDFDMVQAIHLEDLKHASRWWRNTNWDKKLSFARDRLVENFLWTIGFNYLPQFSHGRRTLTKVNALITTIDDVYDVFGTLDEIEQFTDATNRWDINSIEELPDYMKICFLGFYNTINEITYNALTNKRFIILPYLKKAWGDLFKSFVVEANWYQSGHIPTLEEYLENGCISISGPVILMHVHFITSISSAEEIMQCMEISKDIVRYSSLIFRLTDDLGTSSGEMERGDNPKSLQCYMHETGASEDEARIYMKSLIGETWKKLNKERTHASSDITREFIDFATNLVRMAQFMYGEGDVHGRPDVTKSHVLSLLFNPIQEI
notes: N-terminal 46-residue plastid signal peptide removed (before RR motif; full length 586 residues); pET-32a fusion tag kept; E. coli BL21(DE3); Ni-NTA
B3: AaTPS6 (Artemisia annua) (protein)
chain: GRRSANYEPSLWSFDHVQSLSSKYTGKNYVSRADSLKKIVKTMIHEVGNPSTALELVDDLQRLGIWYHFEDEISNVLEMIYRDFYDNEDRCSKMDMNFKALSFRLLRQHGYHVPQEIFHNFKEKTQNLKPYLHEDMVVMLNIYEASYYSYEDESIMDDARDFTAKYLKENHDSIDESISSLVSHALEFPLHWRIPREEAKWFIEFYEKRSGRNPTLIELAKLDFNMVQSIHLEDLKHASRWWRNTCWDKELPFARDRLMENFLWTVGVNYLPRFSLGRRTLTKVNAMITTIDDVYDVFGTIDELEKFTEVTNRWDINAVEELPDYMQICFIAFYNSINEIAYNTLTDTKFLILQYLKKGWVDLCNSYLKEAQWYESGYVPTLEEYLENAYVSISAPVILTHVNFLTTITSKEEILQFMETSDNIVRYSSLILRLADDLGTSSLEMARGDVPKSIQCYMHESGASEDEARMHIKDLILETWKKFNKEREHVKSKIAREFTYCAMNLGRMAQFMYREGDGHGHLSDVTKSHVLSWLINPIQGM
notes: N-terminal 46-residue plastid signal peptide removed (before RR motif; full length 587 residues); pET-32a fusion tag kept; E. coli BL21(DE3); Ni-NTA

Substrate: CC(C)=CCC/C(C)=C/COP(=O)(O)OP(=O)(O)O
Experiment: purified protein
Format: biochemical, Artemisia annua
Conditions: Mg2+ (5 mM MgCl2), 25 mM HEPES pH 7.0, 5 mM DTT, 30 °C, GPP 3-100 μM
[1] = Table 1 prints 19.74 (text and table disagree; printed kcat/Km 7.66 × 10^4 fits 19.47)

Protein | Km [1] | kcat [1] | Km | kcat | kcat/Km
B1 | 19.47 µM | 1.49 s⁻¹ |  |  | 
B2 |  |  | 8.25 µM | 0.52 s⁻¹ | 63100 M⁻¹ s⁻¹
B3 |  |  | 17.70 µM | 4.46 s⁻¹ | 252000 M⁻¹ s⁻¹
